# Reference: patent US20040259779A1
# Experiments:
# [1] = target: combination of receptor ALK7 and receptor ActRIIB; assay: cell-based or functional assay
# [2] = target: combination of receptor ALK4 and receptor ActRIIB; assay: cell-based or functional assay
substance,measurement,setting,value
Neuronal Survival and Growth Factor 3 (NSG3) (ligand),"luciferase activity of the Smad3-specific pCAGA-luc reporter in HepG2 cells co-expressing ALK7, ActRIIB and NsG-3 (basal without NsG-3 approx. 9) (arbitrary units)",[1],33
same,"luciferase activity of the Smad3-specific pCAGA-luc reporter in HepG2 cells co-expressing ALK4, ActRIIB and NsG-3 (basal without NsG-3 approx. 2) (arbitrary units)",[2],7
